Patent US20240336664A1, “SULFATED POLYPEPTIDES FOR SYSTEMIC DELIVERY” (priority 2021, published 2024)

Test system: C2C12 mouse myoblasts
Test: Luciferase reporter expression from muscle promoters
Assay type: cell-based
Details: 48 hours post transfection, FIG. 6
From the text: The present Example includes the recognition that certain promoters utilized herein have advantageous characteristics for expression of operably linked coding sequences in muscle cells, as exemplified in the present Example in C2C12 mouse myoblasts as a representative muscle cell type. In the present Example, a luciferase reporter construct was expressed in C2C12 mouse myoblasts using each of three promoters. Cells were mock transfected or transfected with vectors expressing luciferase using Lipofectamine LTS Plus reagent in a 96-well plate. 48 hours post transfection luciferase activity was measured using ONE-Glo™ Luciferase Assay System (E6110, Promega).

B1: SEQ ID NO: 3: promoter nucleic acid sequence driving a luciferase expression construct in muscle cells (nucleic acid)
DNA: CAGGCCCTGTAACTTTTCCAATAAAATATTCTATTAGAAACAAGTTCCTTCTAGATCTTCCTAAAAGAATACTAAAGGACCAAACCGTGCAACAGCACTGGTGGTATTGTCTTAATTTAGAGAGTCCATACCAGTGATTCTCAAACATTAGTATGCTCAGAGTTTCTGGTTCAATAGGTCTGGGCCGGGCCCAGGGAATTTTCATTTCTAAGAAGTTCGCAGGTGATACTGATAACTGCTGTTCCCAGGGTCTACATTTTGAGATCCGCTGCTATGTCACAAATCCAAATCCAAAGTCTTTTTAACAATCCCTTTTAGCCCAGGATGAGCCTAACGGCAATTTCACGTCCTTATCGCCGGCCACTTTAATCTTCAACTGAGGAGGAAGGGAGAGTGAGAATTATGTATATAATTTTTTTCTTTTATTTTTTAAAAAGAAAACTCCAAGCCCACACTCTTAATTATCTGGGATGAGGTCATTTGCACCTGGGTCATTTATTTAGACAACAAGTAGTCTTGCTAGAGGCTTTAAGGAGGTGTTAGCAGAGCGGTGTGTGGCTTCCAGGTTCCTGGGTCTACCTTAAATCCCCATCCTCTTTCTTTCTTTCTTTCTTTCTTTCTTTCTCTTTTCTTTTTCCTTTCCGTTTTGAAAGCCCCAACTGCCCAGTCTCTGGGTGTCCGGGTTCCCAGGTCCCTAGGTGGGGGCGGAGCCCGACACGGCCCCGCCCCGTCTGCCCGCAGCGCCCCCTCCCCGGCCCGCCCGCGCCGGCTCCTCCGCAGTGCTTTCAGCTGTGAGCTTGGGCGGCGGCGGCGGCGGCGCTCCACTTTCGGGGAGCCCGGCGGCTCTGGGAAGCTCACTCCTCCACTCGTACCCACACTCGACCGCGGAGCCCTTGCAGCCATGAGGGAACAGCTCAAAGGGTAAGTGGA
- luciferase expression vs promoters SEQ ID NO: 4 and SEQ ID NO: 5 and mock: substantially greater expression
